# Biological target: internally quenched peptide probe (MCA)-Gly-Ser-Ala-Ile-Ala-Leu-Tyr-Gly-Gly-Ser-Lys (DNP)-D-Arg with CM AIALY (SEQ ID NO: 5)
protein,measurement,value
"human recombinant MMP2 (R&D Systems, catalog No: 902-MP) (protein) YNFFPRKPKWDKNQITYRIIGYTPDLDPETVDDAFARAFQVWSDVTPLRFSRIHDGEADIMINFGRWEHGDGYPFDGKDGLLAHAFAPGTGVGGDSHFDDDELWTLGEGQVVRVKYGNADGEYCKFPFLFNGKEYNSCTDTGRSDGFLWCSTTYNFEKDGKYGFCPHEALFTMGGNAEGQPCKFPFRFQGTSYDSCTTEGRTDGYRWCGTTEDYDRDKKYGFCPETAMSTVGGNSEGAPCVFPFTFLGNKYESCTSAGRSDGKMWCATTANYDDDRKWGFCPDQGYSLFLVAAHEFGHAMGLEHSQDPGALMAPIYTYTKNFRLSQDDIKGIQELYGASPDIDLGTGPTPTLGPVTPEICKQDIVFDGIAQIRGEIFFFKDRFIWRTVTPRDKPMGPLLVATFWPELPEKIDAVYEAPQEEKAVFFAGNEYWIYSASTLERGYPKPLTSLGLPPDVQRVDAAFNWSKNKKTYIFAGDKFWRYNEVKKKMDPGFPKLIADAWNAIPDNLDAVVDLQGGGHSYFFKGAYYLKLENQSLKSVKFGSIKSDWLGC",Probe Cleavage (kcat/KM),39000 M⁻¹ s⁻¹
same,Probe Cleavage (pM/s),135 pM/s

# Reference: patent US20260049148
